We go through four molecules from PMC9330781, “Isolated Variable Domains of an Antibody Can Assemble on Blood Coagulation Factor VIII into a Functional Fv-like Complex” (International Journal of Molecular Sciences, 2022).

The labels stand for the following.
B4: Recombinant B-domain deleted FVIII (BDD) (natural protein, human, UniProt P00451 20-2351, looked up)
chain 1: ATRRYYLGAVELSWDYMQSDLGELPVDARFPPRVPKSFPFNTSVVYKKTLFVEFTDHLFNIAKPRPPWMGLLGPTIQAEVYDTVVITLKNMASHPVSLHAVGVSYWKASEGAEYDDQTSQREKEDDKVFPGGSHTYVWQVLKENGPMASDPLCLTYSYLSHVDLVKDLNSGLIGALLVCREGSLAKEKTQTLHKFILLFAVFDEGKSWHSETKNSLMQDRDAASARAWPKMHTVNGYVNRSLPGLIGCHRKSVYWHVIGMGTTPEVHSIFLEGHTFLVRNHRQASLEISPITFLTAQTLLMDLGQFLLFCHISSHQHDGMEAYVKVDSCPEEPQLRMKNNEEAEDYDDDLTDSEMDVVRFDDDNSPSFIQIRSVAKKHPKTWVHYIAAEEEDWDYAPLVLAPDDRSYKSQYLNNGPQRIGRKYKKVRFMAYTDETFKTREAIQHESGILGPLLYGEVGDTLLIIFKNQASRPYNIYPHGITDVRPLYSRRLPKGVKHLKDFPILPGEIFKYKWTVTVEDGPTKSDPRCLTRYYSSFVNMERDLASGLIGPLLICYKESVDQRGNQIMSDKRNVILFSVFDENRSWYLTENIQRFLPNPAGVQLEDPEFQASNIMHSINGYVFDSLQLSVCLHEVAYWYILSIGAQTDFLSVFFSGYTFKHKMVYEDTLTLFPFSGETVFMSMENPGLWILGCHNSDFRNRGMTALLKVSSCDKNTGDYYEDSYEDISAYLLSKNNAIEPR
chain 2: EITRTTLQSDQEEIDYDDTISVEMKKEDFDIYDEDENQSPRSFQKKTRHYFIAAVERLWDYGMSSSPHVLRNRAQSGSVPQFKKVVFQEFTDGSFTQPLYRGELNEHLGLLGPYIRAEVEDNIMVTFRNQASRPYSFYSSLISYEEDQRQGAEPRKNFVKPNETKTYFWKVQHHMAPTKDEFDCKAWAYFSDVDLEKDVHSGLIGPLLVCHTNTLNPAHGRQVTVQEFALFFTIFDETKSWYFTENMERNCRAPCNIQMEDPTFKENYRFHAINGYIMDTLPGLVMAQDQRIRWYLLSMGSNENIHSIHFSGHVFTVRKKEEYKMALYNLYPGVFETVEMLPSKAGIWRVECLIGEHLHAGMSTLFLVYSNKCQTPLGMASGHIRDFQITASGQYGQWAPKLARLHYSGSINAWSTKEPFSWIKVDLLAPMIIHGIKTQGARQKFSSLYISQFIIMYSLDGKKWQTYRGNSTGTLMVFFGNVDSSGIKHNIFNPPIIARYIRLHPTHYSIRSTLRMELMGCDLNSCSMPLGMESKAISDAQITASSYFTNMFATWSPSKARLHLQGRSNAWRPQVNNPKEWLQVDFQKTMKVTGVTTQGVKSLLTSMYVKEFLISSSQDGHQWTLFFQNGKVKVFQGNQDSFTPVVNSLDPPLLTRYLRIHPQSWVHQIALRMEVLGCEAQDLY
notes: coagulation factor VIII, human, B-domain deleted; also called BDD FVIII; source: bought: FVIII pharmaceutical product, ASD Healthcare, AmerisourceBergen

Holding throughout (details): both partners purified
The target of assay [1] is T1, Recombinant blood coagulation factor VIII (human).
T1 construct: coagulation factor VIII, human, heavy chain with the domain structure A1-A2-B; coagulation factor VIII, human, light chain with the domain structure A3-C1-C2; Written here as one chain entry with two parts would be wrong: see the two pieces as heavy chain and light chain of the heterodimer; also called FVIII; source: bought: FVIII pharmaceutical product, ASD Healthcare, AmerisourceBergen
The assay is described as follows: SPR; each scFv variant covalently immobilised (amine coupling, CM5, 250-350 RU); FVIII injected at 3.125, 12.5, 50 and 200 nM; 10 mM HEPES, 150 mM NaCl, 5 mM CaCl2, 0.005% Polysorbate-20; 25 °C; 1:1 (Langmuir) binding model; Biacore T200. (Surface plasmon resonance follows binding to a sensor surface in real time, without labels.)

In assay [2] the target is B4. The assay is described as follows: pull-down; FVIII (BDD, ~2 µg) incubated with the scFv or its fragments (1- to 5-fold molar excess) in HBS-P/Ca buffer for 1 h at room temperature, captured on VIIISelect (FVIII-affinity) resin, washed, eluted, SDS-PAGE with silver staining.
Assay [3] has as its target T2, Isolated VH subunit of thrombin-cleaved iKM33-v1.
T2 construct: as the VH of m2; the stretch of the linker of m2 that stays on VH after thrombin cleavage; About 13 kDa; source: thrombin cleavage of the purified scFv (Sf9); supernatant after Ni-NTA agarose, buffer exchanged and concentrated
Described as above.

B1: scFv iKM33-v1 (thrombin-cleavable variant of iKM33) (scFv, V domains shown)
VH: EVQLVESGGGVVQPGRSLRLSCVDSGLTFSSYGMHWVRQAPGAGLEWVAVISYDGNDKYYADSVKGRFAISRDNAKNTLYLQMNSLTIEDTAVYYCAKDLIESNIAEAFWGQGTLVTVSS
VL: DIQMTQSPSSLSASVGDTVTIACRASRDIRNDLAWYQQKPGKAPKLLIYATSRLQSGVPSRFSGSGSFTDFTLTINSLQPDDSATYYCLQDSDYPLTFGGGTKVDIK
notes: as the VH of m1; linker with a thrombin cleavage site made after the FVIII Arg740 site, 15 or 17 residues long; as the VL of m1; Differs from m1 only in the linker; also called intact scFv; source: Sf9 cells, baculovirus, purified from conditioned media (HisTrap Excel, Superdex 75)
For B1, the binding result in assay [1] and in assay [2] was “binds” in each case.

B2: scFv iKM33-v2 (thrombin-cleavable variant of iKM33) (scFv, V domains shown)
VH: EVQLVESGGGVVQPGRSLRLSCVDSGLTFSSYGMHWVRQAPGAGLEWVAVISYDGNDKYYADSVKGRFAISRDNAKNTLYLQMNSLTIEDTAVYYCAKDLIESNIAEAFWGQGTLVTVSS
VL: DIQMTQSPSSLSASVGDTVTIACRASRDIRNDLAWYQQKPGKAPKLLIYATSRLQSGVPSRFSGSGSFTDFTLTINSLQPDDSATYYCLQDSDYPLTFGGGTKVDIK
notes: as the VH of m1; linker with a thrombin cleavage site made after the FVIII Arg740 site, 15 or 17 residues long; as the VL of m1; Differs from m1 only in the linker; also called non-cleaved scFv; source: Sf9 cells, baculovirus, purified from conditioned media (HisTrap Excel, Superdex 75)
On to B2, for which the binding result in assay [1] was “binds”.

B3: scFv iKM33-v3 (thrombin-cleavable variant of iKM33) (scFv, V domains shown)
VH: EVQLVESGGGVVQPGRSLRLSCVDSGLTFSSYGMHWVRQAPGAGLEWVAVISYDGNDKYYADSVKGRFAISRDNAKNTLYLQMNSLTIEDTAVYYCAKDLIESNIAEAFWGQGTLVTVSS
VL: DIQMTQSPSSLSASVGDTVTIACRASRDIRNDLAWYQQKPGKAPKLLIYATSRLQSGVPSRFSGSGSFTDFTLTINSLQPDDSATYYCLQDSDYPLTFGGGTKVDIK
notes: as the VH of m1; linker with a thrombin cleavage site made after the FVIII Arg372 site; as the VL of m1; Differs from m1 only in the linker; source: Sf9 cells, baculovirus, purified from conditioned media (HisTrap Excel, Superdex 75)
With B3, the binding result in assay [1] is reported as “binds”. For B4, in assay [3], the binding result is on record as “binds”.
